The values below come from publication doi:10.1101/2021.10.29.466484, “Clamping of DNA shuts the condensin neck gate” (bioRxiv, 2021).

For one assay, the target named is T1, Smc4 (S. cerevisiae, UniProt Q12267 1-1418).
T1 construct: Smc4, SMC subunit of budding yeast (S. cerevisiae) condensin, wild type; Only the head domain and proximal coiled coil are resolved in the maps; also called SMC4-3xStrepII
T1 sequence: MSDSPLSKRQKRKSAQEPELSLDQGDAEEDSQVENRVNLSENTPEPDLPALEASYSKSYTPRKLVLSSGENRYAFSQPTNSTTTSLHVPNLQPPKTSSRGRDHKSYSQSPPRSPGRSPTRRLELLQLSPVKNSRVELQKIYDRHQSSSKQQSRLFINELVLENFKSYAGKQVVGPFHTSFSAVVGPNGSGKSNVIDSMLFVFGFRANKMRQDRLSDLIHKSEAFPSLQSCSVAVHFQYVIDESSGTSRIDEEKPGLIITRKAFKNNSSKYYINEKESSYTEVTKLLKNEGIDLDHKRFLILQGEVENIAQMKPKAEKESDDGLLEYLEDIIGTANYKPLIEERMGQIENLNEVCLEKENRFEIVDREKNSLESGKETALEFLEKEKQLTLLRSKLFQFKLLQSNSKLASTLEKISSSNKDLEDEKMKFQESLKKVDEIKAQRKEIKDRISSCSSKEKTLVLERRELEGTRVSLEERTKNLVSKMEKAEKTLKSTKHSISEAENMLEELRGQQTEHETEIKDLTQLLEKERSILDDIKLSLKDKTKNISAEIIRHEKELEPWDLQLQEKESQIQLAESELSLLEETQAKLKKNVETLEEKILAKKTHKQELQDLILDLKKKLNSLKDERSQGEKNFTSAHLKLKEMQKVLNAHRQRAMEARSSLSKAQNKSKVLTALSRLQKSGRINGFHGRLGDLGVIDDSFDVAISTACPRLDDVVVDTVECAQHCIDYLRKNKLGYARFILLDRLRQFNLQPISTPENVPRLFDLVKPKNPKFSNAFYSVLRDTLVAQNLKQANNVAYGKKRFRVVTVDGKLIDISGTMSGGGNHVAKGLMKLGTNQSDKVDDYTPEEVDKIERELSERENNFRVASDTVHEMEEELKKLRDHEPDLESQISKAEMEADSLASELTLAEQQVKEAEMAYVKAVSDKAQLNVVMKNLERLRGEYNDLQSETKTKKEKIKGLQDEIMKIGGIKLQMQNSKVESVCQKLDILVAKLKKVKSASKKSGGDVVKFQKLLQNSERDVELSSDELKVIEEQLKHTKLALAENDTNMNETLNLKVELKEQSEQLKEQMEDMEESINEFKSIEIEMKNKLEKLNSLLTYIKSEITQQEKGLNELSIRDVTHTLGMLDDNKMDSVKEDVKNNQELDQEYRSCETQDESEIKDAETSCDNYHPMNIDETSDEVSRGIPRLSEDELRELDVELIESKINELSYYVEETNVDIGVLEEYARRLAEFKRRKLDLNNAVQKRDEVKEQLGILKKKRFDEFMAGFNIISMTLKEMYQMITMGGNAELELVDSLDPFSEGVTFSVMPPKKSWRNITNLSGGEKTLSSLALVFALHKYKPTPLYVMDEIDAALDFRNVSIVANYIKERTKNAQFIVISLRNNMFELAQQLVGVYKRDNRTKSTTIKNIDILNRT
The assay can be described thus: cryo-EM structure; condensin pentamer (Smc2, Smc4, Brn1, Ycs4, Ycg1) with 80 bp dsDNA, ADP and BeF3; separate maps of the head module and of Ycg1-DNA from one dataset. Conditions: both partners purified.

A further assay addresses T2, Ycg1 (S. cerevisiae, UniProt Q06680 1-1035).
T2 construct: Ycg1, HAWK subunit of budding yeast (S. cerevisiae) condensin, wild type
T2 sequence: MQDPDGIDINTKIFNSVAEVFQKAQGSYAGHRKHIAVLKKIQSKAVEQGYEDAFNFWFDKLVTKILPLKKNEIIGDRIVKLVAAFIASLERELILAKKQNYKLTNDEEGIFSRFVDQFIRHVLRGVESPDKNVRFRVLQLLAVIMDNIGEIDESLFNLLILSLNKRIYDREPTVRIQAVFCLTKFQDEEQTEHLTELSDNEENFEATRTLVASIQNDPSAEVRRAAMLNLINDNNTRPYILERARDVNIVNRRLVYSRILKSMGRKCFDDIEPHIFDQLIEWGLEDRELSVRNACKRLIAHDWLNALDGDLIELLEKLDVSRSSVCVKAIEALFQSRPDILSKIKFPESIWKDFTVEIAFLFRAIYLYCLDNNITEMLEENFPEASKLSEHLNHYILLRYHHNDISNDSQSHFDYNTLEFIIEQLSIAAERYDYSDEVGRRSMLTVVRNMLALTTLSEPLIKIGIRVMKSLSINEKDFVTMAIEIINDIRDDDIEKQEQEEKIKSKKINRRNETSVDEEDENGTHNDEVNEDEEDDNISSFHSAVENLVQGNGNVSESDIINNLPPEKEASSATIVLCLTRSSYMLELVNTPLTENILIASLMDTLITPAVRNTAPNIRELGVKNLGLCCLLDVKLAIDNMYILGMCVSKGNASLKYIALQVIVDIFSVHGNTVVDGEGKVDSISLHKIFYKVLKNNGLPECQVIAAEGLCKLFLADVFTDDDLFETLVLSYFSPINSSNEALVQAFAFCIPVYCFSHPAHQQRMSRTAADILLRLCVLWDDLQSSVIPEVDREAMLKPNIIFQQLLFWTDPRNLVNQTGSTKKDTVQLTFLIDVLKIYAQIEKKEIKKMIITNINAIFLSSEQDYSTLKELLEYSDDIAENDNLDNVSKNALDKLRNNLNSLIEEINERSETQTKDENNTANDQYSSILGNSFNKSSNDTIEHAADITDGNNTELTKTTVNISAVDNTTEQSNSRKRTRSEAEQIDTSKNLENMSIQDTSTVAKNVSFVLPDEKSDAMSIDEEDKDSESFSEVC
The description is as above. Conditions: both partners purified.

B1: Brn1 (natural protein, S. cerevisiae)
chain: MTTQLRYENNDDDERVEYNLFTNRSTMMANFEEWIKMATDNKINSRNSWNFALIDYFYDLDVLKDGENNINFQKASATLDGCIKIYSSRVDSVTTETGKLLSGLAQRKTNGASNGDDSNGGNGEGLGGDSDEANIEIDPLTGMPISNDPDVNNTRRRVYNRVLETTLVEFETIKMKELDQELIIDPLFKKALVDFDEGGAKSLLLNTLNIDNTARVIFDASIKDTQNVGQGKLQRKEEELIERDSLVDDENEPSQSLISTRNDSTVNDSVISAPSMEDEILSLGMDFIKFDQIAVCEISGSIEQLRNVVEDINQAKDFIENVNNRFDNFLTEEELQAAVPDNAEDDSDGFDMGMQQELCYPDENHDNTSHDEQDDDNVNSTTGSIFEKDLMAYFDENLNRNWRGREHWKVRNFKKANLVNKESDLLEETRTTIGDTTDKNTTDDKSMDTKKKHKQKKVLEIDFFKTDDSFEDKVFASKGRTKIDMPIKNRKNDTHYLLPDDFHFSTDRITRLFIKPGQKMSLFSHRKHTRGDVSSGLFEKSTVSANHSNNDIPTIADEHFWADNYERKEQEEKEKEQSKEVGDVVGGALDNPFEDDMDGVDFNQAFEGTDDNEEASVKLDLQDDEDHKFPIRENKVTYSRVSKKVDVRRLKKNVWRSINNLIQEHDSRKNREQSSNDSETHTEDESTKELKFSDIIQGISKMYSDDTLKDISTSFCFICLLHLANEHGLQITHTENYNDLIVNYEDLATTQAAS
notes: Brn1, kleisin subunit of budding yeast (S. cerevisiae) condensin, wild type; also called kleisin Brn1; BRN1-HA3-His12
As for B1, the binding result in the assay with Smc4 and with Ycg1 was “binds” each time.
